The values below come from patent US20250027945A1 (University of California, published 2025).

The labels stand for the following.
B1: 3C12 (antibody, V domains shown)
VH: QVQLKESGPGLVAPSQSLSITCTVSGFSLNGYGVNWVRQPPGKDLEWLGMIWGDGITEFNSALKSRLSISKDNSKSQVFLKMNSLQTEDTARYYCVRQGSGVWFAYWGQGTLVS
VL: DVLVTQTPLSLPVSLGDQASISCRSSQTIVHSNGNTYLEWYLQKPGQSPKLLIYKVSNRFSGVPDRFSGSGSGTDFTLKISRVEAEDLGVYYCFQGSHVPYTFGGGTKLEIK
notes: anti-human RYK mAb; also called 3C12 mAb
B2: 11E9 (antibody, V domains shown)
VH: QVQLKESGPGLVAPSQSLSITCTVSGFSLNGYGVNWVRQPPGKDLEWLGMIWGDGITEFNSALKSRLSISKDNSKSQVFLKMNSLQTEDTARYYCVRQGSGVWFAYWGQGTLS
VL: B1 VL with S61C
notes: anti-human RYK mAb; also called 11E9 mAb
B3: recombinant human RYK protein used in KinExA (receptor, UniProt P34925 46-227, looked up)
chain: AAPAPRPPELQSASAGPSVSLYLSEDEVRRLIGLDAELYYVRNDLISHYALSFSLLVPSETNFLHFTWHAKSKVEYKLGFQVDNVLAMDMPQVNISVQGEVPRTLSVFRVELSCTGKVDSEVMILMQLNLTVNSSKNFTVLNFKRRKMCYKKLEEVKTSALDKNTSRTIYDPVHAAPTTSTR
notes: Legend prints 'RYK2'; also called recombinant human RYK2 protein
B4: 7-H10 anti-human RYK mAb (antibody, V domains shown)
VH: QVQLQQSGAELAKPGTSVKLSCKASGYIFTNYDINWVRQRPEQGLEWIGWIFPGDDSTKYNEKFEGKAALTTDKSSNTAYIQLSRLTSGDSAVYFCTRYHYYGSSLGWSFDVWGAGTSVTVSS
VL: EIVLTQSPALMAASPGEKVTITCSVSSRISSINLHWYQQKSETSPKTWIYGTSNLASGVPSRFSGSGSGTSYSLTISNMEAEDAATYYCQQWSSYPYTFGGGTKVEIK
notes: Mouse hybridoma mAb, kappa light chain, detected with anti-mouse IgG; also called mAb 7-H10

Test [1] deals with T1, recombinant extracellular protein of mouse RYK (mouse, UniProt Q01887 35-211).
T1 construct: also called mRYK; not shown: rabbit IgG tag for purification
Description: dot blot of recombinant RYK proteins (rabbit IgG tag) on nylon membrane, probed with the mAb, anti-mouse IgG-HRP. How it is done:
FIGS. 4A-4B illustrate the […] of amino acids required for binding of anti-human RYK mAb to the extracellular domain of human RYK (SEQ ID NO:129). FIG. 4A illustrates experiments in which binding of 2-D11, 7-H10, 3-C12, 11-E9, 6-B5, 6-D10 and sheep anti-RYK mAb was assessed using recombinant human RYK proteins (SEQ ID NO:129) in which one amino acid that differs between human and mouse RYK within the extracellular domain was replaced with the corresponding amino acid of mouse RYK. Each recombinant protein was transferred onto nylon membrane, probed with the indicated anti-RYK mAb or Sheep anti-RYK Ab, and detected with an anti-mouse IgG or donkey-anti-sheep antibody conjugated with horse radish peroxidase. Rabbit anti-IgG blotting is a positive for protein blotting and detection as recombinant proteins have a rabbit IgG tag for purification. Alignment of the protein sequences of the extracellular domain of human and mouse RYK are shown in the lower panel and the boxed amino acids indicate the amino acids changes made for each recombinant protein. […]

For the test “7-H10 anti-human RYK mAb”, the target named is B4. Nature of the test: KinExA 3200: free mAb captured on RYK-coated particles in the presence of rising molar concentration of soluble RYK. The protocol:
(§1) Analysis was performed using a KinExA 3200 instrument. FIG. 7A: The proportion of anti-human RYK mAb bound to particles coated with RYK protein (y-axis) in the presence of increasing molar (M) concentration of soluble RYK competitor (x-axis) is shown for 2-D11 mAb (upper left panel) and 7-H10 mAb (lower left panel).

Test [2] has as its target B3. Description: KinExA 3200, soluble RYK competitor against RYK-coated particles. The protocol: as §1
The target of test [3] is T1, recombinant extracellular protein of …. Nature of the test: immunoblot of recombinant extracellular protein on nylon membrane. How it is done: FIG. 4A illustrates experiments in which binding of 2-D11, 7-H10, 3-C12, 11-E9, 6-B5, 6-D10 and sheep anti-RYK mAb was assessed using recombinant human RYK proteins (SEQ ID NO:129) in which one amino acid that differs between human and mouse RYK within the extracellular domain was replaced with the corresponding amino acid of mouse RYK. Each recombinant protein was transferred onto nylon membrane, probed with the indicated anti-RYK mAb or Sheep anti-RYK Ab, and detected with an anti-mouse IgG or donkey-anti-sheep antibody conjugated with horse radish peroxidase. […]
The anti-human RYK mAbs, 2-D11 and 7-H10, appear specific for an amino terminal epitope of human Ryk (residues 46-57) that are distinct from those in mouse Ryk (FIG. 3); these mAbs also bind mutant forms of Ryk containing amino acid substitutions in human Ryk at positions that differ from that of the highly homologous mouse Ryk to assimilate mouse Ryk at the site of substitution, with amino acid sequence shown in FIG. 3, as shown by immunoblot analyses of recombinant extracellular proteins of human or mouse or each of the various mutant forms of human Ryk (FIG. 4) For this, the binding of 2-D11, 7-H10, or Sheep anti-RYK mAb was assessed using recombinant extracellular RYK proteins as specified in the Key. […]
Background: In western blotting, separated proteins are transferred to a membrane and probed.

Positions count from the first letter of the chain named.

With B1, in test [1], the binding result was “no binding”.

For B2, the binding result in test [1] was “no binding”.

Regarding B3, the “IC50 (read off the curve)” value in the test with 7-H10 anti-human RYK mAb is ~20 nM.

Turning to B4, the dissociation constant (Kd) (usually the equilibrium constant for the complex coming apart) in test [2] worked out at 10.6 nM. In test [3], the binding result is given as “no binding”.
